{"source": "patent US11248246B2", "about": "“Beta-glucosidase for producing glucose and laminarioligosaccharide from sea weed” (Korea University Research and Business Foundation, priority 2018, dated 2022)", "key": {"[1]": {"substrate": "OC[C@H]1O[C@@H](O[C@H]2[C@H](O)[C@@H](O)C(O)O[C@@H]2CO)[C@H](O)[C@@H](O)[C@@H]1O", "assay": "purified protein, by the assay type", "details": "other: pH 6, 40° C., substrate 0.1-0.4% (w/v)"}, "[2]": {"substrate": "OC[C@H]1O[C@@H](O[C@H]2[C@H]3OC[C@@H]2OC(O)[C@H]3O)[C@H](O)[C@@H](O)[C@H]1O", "assay": "purified protein, by the assay type", "details": "other: pH 6, 40° C., substrate 0.1-0.4% (w/v)"}, "[3]": {"substrate": "OC[C@H]1O[C@@H](OC[C@H]2OC(O)[C@H](O)[C@@H](O)[C@@H]2O)[C@H](O)[C@@H](O)[C@@H]1O", "assay": "purified protein, by the assay type", "details": "other: pH 6, 40° C., substrate 0.1-0.4% (w/v)"}, "[4]": {"substrate": "OC[C@H]1O[C@@H](O[C@H]2[C@H](O)[C@@H](CO)OC(O)[C@@H]2O)[C@H](O)[C@@H](O)[C@@H]1O", "assay": "purified protein, by the assay type", "details": "other: pH 6, 40° C., substrate 0.1-0.4% (w/v)"}, "[5]": {"substrate": "OC[C@H]1O[C@@H](O[C@H]2[C@H](O)[C@@H](O)C(O)O[C@@H]2CO)[C@H](O)[C@@H](O)[C@H]1O", "assay": "purified protein, by the assay type", "details": "other: pH 6, 40° C., substrate 0.1-0.4% (w/v)"}, "[6]": {"assay": "Optimum pH of Bgl1B protein (relative activity at pH 4.0-9.0)", "assay_type": "biochemical", "source_text": "FIG. 2 illustrates the relative activity of Bgl1B at a pH ranging from 4.0 to 9.0. […] The activity was reduced to 30% or less at a pH of 4 and at a pH of 8 or higher."}, "[7]": {"assay": "Substrate specificity of Bgl1B on disaccharides (TLC)", "assay_type": "biochemical", "details": "0.2% (w/v) substrate, 20 mM sodium phosphate buffer (pH 6), 0.6 U of Bgl1B, 1 hour", "description": "To confirm the substrate specificity of the Bgl1B protein, each of 0.2% (w/v) of a plurality of disaccharides in a 20 mM sodium phosphate buffer (pH 6) was allowed to react with 0.6 U of Bgl1B for 1 hour."}, "[8]": {"assay": "Optimum temperature of Bgl1B (relative activity at 2° C. to 60° C.)", "assay_type": "biochemical", "description": "FIG. 3 illustrates the relative activity of Bgl1B at a temperature ranging from 2° C. to 60° C. […] An enzymatic activity of approximately 83% was maintained at 20° C. […] In addition, the enzyme can be inactivated with only simple heat treatment."}, "[9]": {"assay": "Transglycosylase activity against laminaribiose (HPLC, TLC, FIG. 8)", "assay_type": "biochemical", "details": "0.002 U of Bgl1B, 0.3% (w/v) of laminarin (so in the source)", "description": "(§1) Characteristics of the enzymatic reaction of the Bgl1B protein using, as a substrate, laminarin, which is a polysaccharide, were analyzed using high performance liquid chromatography (HPLC) and thin layer chromatography (TLC). HPLC analysis was performed using Agilent 1100 HPLC equipped with a gel permeation and ligand exchange column (KS-802; Shodex) and a refractive index detector, and analysis conditions were a flow rate of 0.5 mL/min, a column temperature of 80° C., and sterile water as a mobile phase. For TLC analysis, 1 μl of a reaction product was loaded onto silica gel 60 plates (Merck), and then developed using a mixed solvent of n-butanol:acetic acid:water (volume ratio of 3:2:2), and treated with 10% (v/v) of sulfuric acid for visualization."}, "[10]": {"assay": "Enzymatic reaction rate (Lineweaver-Burk), laminaribiose", "assay_type": "biochemical", "description": "To confirm the enzymatic reaction rate of the Bgl1B protein for various substrates, the Bgl1B protein was allowed to react with each substrate at various concentrations of 0.1-0.4% (w/v) at pH 6 and 40° C. Vmax, Km, and kcat, which are parameters related to an enzymatic reaction rate, were determined from the Lineweaver-Burk plot."}, "[11]": {"assay": "Hydrolysis of laminarin to glucose (HPLC)", "assay_type": "biochemical", "details": "3 U of Bgl1B, 0.2% (w/v) of laminarin, 40° C., 24 hours", "description": "as §1"}, "[12]": {"assay": "Thermal stability of Bgl1B", "assay_type": "physicochemical", "source_text": "FIG. 4 illustrates the stability with respect to temperature of the enzyme."}, "[13]": {"assay": "Transglycosylase activity against laminarin (HPLC, TLC)", "assay_type": "biochemical", "details": "0.03 U of Bgl1B, 0.2% (w/v) of laminarin, after 24 hours", "description": "as §1"}}, "data": [{"molecule": "Saccharophagus degradans 2-40^T β-glucosidase Bgl1B, recombinant (6 histidine residues at C-terminus), SEQ ID NO: 1 (nucleotide SEQ ID NO: 2) (Saccharophagus … (protein) MNRLTLPPSSRLRSKEFTFGVATSSYQIEGGIDSRLPCNWDTFCEQPNTIIDNTNGAIACDHINRWQDDIELIANLGVDAYRFSIAWGRVINLDGSLNNEGVTFYKNILTKLREKNLKAYITLYHWDLPQHLEDAGGWLNRDTAYKFRDYVNLITQALDDDVFCYTTLNEPFCSAYLGYEIGVHAPGIKDLASGRKAAHHLLLAHGLAMQVLRKNCPNSLSGIVLNMSPCYAGSNAQADIDAAKRADDLLFQWYAQPLLTGCYPDAINSLPDNAKPPICEGDMALISQPLDYLGLNYYTRAVFFADGNGGFTEQVPEGVELTDMGWEVYPQGLTDLLIDLNQRYTLPPLLITENGAAMVDELVNGEVNDIARINYFQTHLQAVHNAIEQGVDVRGYFAWSLMDNFEWALGYSKRFGITYVDYQTQKRTLKASGHAFAEFVSSRS", "values": [{"measurement": "Km", "setting": "[1]", "result": 20, "unit": "mM"}, {"measurement": "Km", "setting": "[2]", "result": 69, "unit": "mM"}, {"measurement": "Km", "setting": "[3]", "result": 13, "unit": "mM"}, {"measurement": "Km", "setting": "[4]", "result": 0.99, "unit": "mM"}, {"measurement": "Km", "setting": "[5]", "result": 20, "unit": "mM"}]}, {"molecule": "Bgl1B: β-glucosidase having the amino acid sequences of SEQ ID NO: 1, from Saccharophagus degradans 2-40^T, with exo-type glucanase and transglycosylase activities (protein, Saccharophagus degradans 2-40T) MNRLTLPPSSRLRSKEFTFGVATSSYQIEGGIDSRLPCNWDTFCEQPNTIIDNTNGAIACDHINRWQDDIELIANLGVDAYRFSIAWGRVINLDGSLNNEGVTFYKNILTKLREKNLKAYITLYHWDLPQHLEDAGGWLNRDTAYKFRDYVNLITQALDDDVFCYTTLNEPFCSAYLGYEIGVHAPGIKDLASGRKAAHHLLLAHGLAMQVLRKNCPNSLSGIVLNMSPCYAGSNAQADIDAAKRADDLLFQWYAQPLLTGCYPDAINSLPDNAKPPICEGDMALISQPLDYLGLNYYTRAVFFADGNGGFTEQVPEGVELTDMGWEVYPQGLTDLLIDLNQRYTLPPLLITENGAAMVDELVNGEVNDIARINYFQTHLQAVHNAIEQGVDVRGYFAWSLMDNFEWALGYSKRFGITYVDYQTQKRTLKASGHAFAEFVSSRS", "values": [{"measurement": "pH of highest activity", "setting": "[6]; 0.1% (w/v) cellobiose, 40° C., 15 minutes, pH 4.0-9.0", "result": 6}, {"measurement": "enzymatic activity at about pH 5 to about pH 7.5", "setting": "[6]; about pH 5 to about pH 7.5", "result": "≥ 80", "unit": "%"}, {"measurement": "relative activity at a pH of 4", "setting": "[6]; pH 4, 0.1% (w/v) cellobiose, 40° C., 15 minutes", "result": "≤ 30", "unit": "%"}, {"measurement": "relative activity at a pH of 8 or higher", "setting": "[6]; pH 8 or higher, 0.1% (w/v) cellobiose, 40° C., 15 minutes", "result": "≤ 30", "unit": "%"}, {"measurement": "hydrolysis of agarotriose", "setting": "[7]", "result": "unable to hydrolyze agarotriose"}, {"measurement": "hydrolysis of disaccharides with an α-linkage", "setting": "[7]", "result": "unable to hydrolyze any disaccharide with an α-linkage"}, {"measurement": "hydrolysis of disaccharides with β-linkages", "setting": "[7]", "result": "able to hydrolyze all disaccharides with β-linkages"}, {"measurement": "enzymatic activity at 50° C. or higher", "setting": "[8]; 50° C. or higher", "result": "sharply reduced"}, {"measurement": "enzymatic activity at 2-10° C.", "setting": "[8]; pH 6, 2-10° C.", "result": "≥ 58", "unit": "%"}, {"measurement": "enzymatic activity at pH 6 and 10° C. to 40° C.", "setting": "[8]; pH 6, 10° C. to 40° C.", "result": "≥ 80", "unit": "%"}, {"measurement": "enzymatic activity maintained at 20° C.", "setting": "[8]; pH 6, 20° C.", "result": "approximately 83%"}, {"measurement": "temperature of highest enzymatic activity", "setting": "[8]; pH 6, range 2° C. to 60° C.", "result": 40, "unit": "°C"}, {"measurement": "product of transglycosylase activity (FIGS. 8A and 8B)", "setting": "[9]", "result": "production of DP3 was confirmed"}, {"measurement": "substrate specificity in a collective view of the parameters", "setting": "[10]; Table 2 substrates compared", "result": "highest substrate specificity for laminaribiose"}, {"measurement": "lower Km compared to Novozyme 188", "setting": "[10]; laminaribiose, compared to the commercialized enzyme Novozyme 188", "result": 2.5, "unit": "fold"}, {"measurement": "production yield of glucose from laminarin", "setting": "[11]", "result": 75, "unit": "%"}, {"measurement": "products of laminarin degradation (HPLC)", "setting": "[11]", "result": "only glucose is produced without the production of oligosaccharides"}, {"measurement": "enzymatic activity maintained after heat", "setting": "[12]; after reaction at 40° C. for 1 hour", "result": 80, "unit": "%"}, {"measurement": "enzymatic activity after heat", "setting": "[12]; after reaction at 50° C. or higher for 1 hour", "result": "almost no activity"}, {"measurement": "products at very low enzyme concentration (transglycosylase activity)", "setting": "[13]", "result": "oligosaccharides with low degrees of polymerization such as DP2, DP3, and DP4 were produced"}]}]}
